Positions count from the first letter of the chain named. Numbers in names are those of the source.
Experiments:
[1] = biological target: SARS-CoV-1 spike, full length, on cells or on pseudotyped virus (SARS-CoV-1, UniProt P59594 14-1255); test: cell-based or functional assay
[2] = biological target: SARS-CoV-2 RBD protein Avi-tag biotinylated (AcroBiosystems SPD-C82E9) (SARS-CoV-2, UniProt P0DTC2 330-518)
SARS-CoV RBD = SARS-CoV RBD (SARS-CoV-1, UniProt P59594 320-502)

B1: VHH72_h1 (VHH)
VHH: EVQLVESGGGLVQPGGSLRLSCAASGRTFSEYAMGWFRQAPGKEREFVATISWSGGSTYYTDSVKGRFTISRDNAKNTVYLQMNSLRPEDTAVYYCAAAGLGTVVSEWDYDYDYWGQGTLVTVSS
IC50, VSV-dG SARS-CoV-1 spike pseudotype neutralization [1]: 0.491 µg/mL

B2: VHH72_h1(S56A) (VHH)
VHH: B1 VHH with S57A
IC50, VSV-dG SARS-CoV-1 spike pseudotype neutralization [1]: 0.045 µg/mL
fold better neutralization than parental VHH72 [1]: 10 fold

B3: SARS VHH-72 (VHH)
VHH: B1 VHH with E1Q, V5Q, P14A, R87K, E89D, L120Q
IC50 [2]: 16 nM

B4: VHH72_h1 (E1D) (VHH)
VHH: B1 VHH with E1D
koff (SARS-CoV RBD): 0.00219 s⁻¹

From patent US20230227537A1 (VIB VZW, published 2023)
